In the DeepSol protein solubility set:

Assay: soluble on expression in E. coli; label from the status in PepcDB or PDB records

| Sequence | soluble on expression in E. coli |
| --- | --- |
| MIKSLKQLAIQAGLEYLGEDVSIQTVAINSNEVRQDCLFVAIVANRDGHEFIPSAIANGAKAILVSKKQGLDIPQVVCGNTIKGLRALAKEYRKSLTMPIISLTGSCGKTSVKEMIVTLLGERKVHFTQGNLNNYLGVPMTILETPHDVDFAVIEAGTNVGGEIKAAADIIQPNIAMITNVGACHLENLKTLDGVMIEKGELLKALPRDGFCIVNLDDERIPNYAKLLECKKISCSMTNPKADILVLDYRATSNSYAFKIRIFSQEYDYQLPNIGKHNLFNSVLAIASVVAVGLEPKDFLQNTQNIKNYKGRFSTEKLSDKLTLIDDTYNASAGAVQAAIEDLAEFDGKKILAISSMRELGDEAENYHRKMGQWLKKANLDKIFLFGEKNLIDYVLAEYSNQNAKYYESKDELNNDLAKILDEYKSQSTKLTVKGARSFKMEEVVKFVKENL | not soluble |
| MTENIHKHRILILDFGSQYTQLVARRVRELGVYCELWAWDVTEAQIRDFNPSGIILSGGPESTTEENSPRAPQYVFEAGVPVFGVCYGMQTMAMQLGGHVEASNEREFGYAQVEVVNDSALVRGIEDALTADGKPLLDVWMSHGDKVTAIPSDFITVASTESCPFAIMANEEKRFYGVQFHPEVTHTRQGMRMLERFVRDICQCEALWTPAKIIDDAVARIREQVGDDKVILGLSGGVDSSVTAMLLHRAIGKNLTCVFVDNGLLRLNEAEQVLDMFGDHFGLNIVHVPAEDRFLSALAGENDPEAKRKIIGRVFVEVFDEEALKLEDVKWLAQGTIYPDVIESAASATGKAHVIKSHHNVGGLPKEMKMGLVEPLKELFKDEVRKIGLELGLPYDMLYRHPFPGPGLGVRVLGEVKKEYCDLLRRADAIFIEELRKADLYDKVSQAFTVFLPVRSVGVMGDGRKYDWVVSLRAVETIDFMTAHWAHLPYDFLGRVSNRIINEVNGISRVVYDISGKPPATIEWE | soluble |
| MLGASRWRRTSAFSGIWRIPMSSNNSSRKVVTVDEQAFERTEDAGVDEDGFKVVDDKPEFRATVQQEKQAKVDSNHPDGIVQDFSHLPLAQEEKIRAREAELDHISAQAELGTQDGRAKRTRKVVTERRQRKRAERTPDRTDPRERLSRMELAKVNQEADRMAQRLRTGHSRAAVSRALAKRVAKGQDITKAVFDTMDALKAAPGAICPIEDVPDVQTDEVSIEGEVVQLWDASSRKIAQVGLVADDTGKIKFTSWRKSEPAFVQEGDTVRMRAVKKNWYEGRCSLAVTYDSMIVFPERDRRWWEELEHHHHHH | not soluble |
| MAMPEKSSDVKPTEECGSFPEIIELNVGGQVYITRYPTLISIPGSRLWEMFSVKNPCSLIQDNKGRFFIDRDGFLFRYVLDYMRDMQVVLPDHFPECGRLHREAEYFKLPELAKMLAPKMNKLNSIGNDSCPIDLEELSPSIDTTFNFSSTNSIHISGPDNPMVLRAAPGSELKKAGFITIGYRGSYTLGRDSQADAKFRRVARIMVCGKISLAKEVFGDTLNESRDPDRPPERYTSRYYLKFTFLEQAFDKLADAGFHMVACNSTGTCTVTHDQTDDRIWTSYTEYVFYRE | soluble |
| MQKQRMSGQNQKTDKRIAWPIIIMNFTGVYDYEAFARNNKFIWLDCRHLYGTDGYCDREGALALKGMIADYPAEGVHFIDSGNYHYLTKFWTDKLETPFSLIVFDHHPDMQPPLFDNILSCGSWVKDILDHNNNCKKVIIVGASDKLIQAVPKGYERQVRFYSETTLMHEEGWQNFSSGHINGPVYISIDKDVLKPASAATNWDQGSLSLWELEKLLAVILQKEQVVGIDICGECSTTLNLFEEKRETVMDSQANKELLRFIRSSSGLQ | not soluble |
| MAKYTRDDILAQAKQLAKMIAETEEVDFFKRAEEKIHQNEKVRTLINELKSLQKQAVNLQHYGKHEALKQVEAKIDAIYEELSQIPIVSEFQQSQSDVNDLLQLVASTISNTVTDEILASTGGDVLRGETGAALRYNKHGGCH | not soluble |
| MENKYTHGVLFYHEHSGLKNINQGIGEVTTALSSICKHLSIQLSENEGDIIKYCQEIKTKNYAKDVDILFILGGDGTVNELINGVMSHDLQLPIGILPGGTFNDFTKTLNIAPNHKQASEQMISAQVGTYDVIKINNQYALNFVGLGLIVQNAENVQDGSKDIFGKLSYIGSTVKTLLNPTQFNYQLSIDDKTYSGETTMILTANGPFIGGSRIPLTDLSPQDGELNTFIFNEQSFSILNDIFKKRDSMNWNEITQGIEHIPGKKISLTTDPAMKVDIDGEISLETPIDIEVIPNAIQLLTVNDL | soluble |
| MTDTIEAKANMQTVSALPPEETERLGTEIVAALKTVFDPEIPADIYELGLIYKVEIKDDRTVDIDMTLTTPNCPAAAELPTMVENAVASVPGVGVVNVNIVWEPPWTPERMSDEARLVLNMW | not soluble |
| MKYILVTGGVISGIGKGIIASSIGTILKSCGLRVTAIKIDPYINIDAGTFSPYEHGEVFVLNDGGEVDLDLGNYERFLDINLYKDNNITTGKIYQHVINKERRGDYLGKTVQVVPHITDAVQEWVMNQAKVPVDGNKEEPQICVIELGGTIGDIEGMPFVEAFRQFQFKAKRENFCNIHVSLVPQLSATGEQKTKPTQNSVRALRGLGLSPDLIVCRSSTPIEMAVKEKISMFCHVNPEQVICIHDVSSTYRVPVLLEEQSIVKYFKERLHLPIGAHHHHHH | soluble |
| MGSDKIHHHHHHMKDKDINNDFNHIFPKDIRDDFLFSLDSYRLFLEGLSINPSLFYQKWSDVHLQSIIDKYWKPTQKSDWKWSLALPIFSLLENYINTFNKPIIIGFSGLPGSGKSTLGLWIDSVARELSLDIKVISLDDFYLPGHEMDVAMTGNPWNVPRGFPGSHSLDLLNQSLDVFLKTGVLNSPTFDKSLRDGKGDRSGWCDSQPRVLILEGWFVGCEAVSDLSKIDSMAADEFNLSLSQSEKDYRILIQESLFEYSHIWKKFEKIWHLKSSQFNNTILWKSQQEGEMIKLKGSGLKGNNLSNFIRMIQTSIPQQSLSFINSDTTVGINQDRRINFLKTSKYYF | not soluble |
| HQRWHKKASVLIYGAGSSGRQLATALSQGPEYHAVAFIDDYKALQGQIIQGIPVYSPEEISHVVERKTVQKILLAIPSASRARRKQVLAKIDCLGIQVLTIPGMADIVEGKAKLEEFKDVGVEDLLGRDSVEPKPELMNADIAD | not soluble |
| GMKDTDETAFLNSLFMDFTSENELELFLKSLDEVWSEDLYSRLSAAGLIRHVISKVWNKEQHRISMVFEYDSKEGYQKCQEIIDKEFGITLKEKLKKFVFKIHNNRGVVVSEFIRST | soluble |
| MKFSRPVLSVNHLILGKKCDVCRKKCSGDVLKANDKYFHINCFQCKKCGRNLGETGFYTTPENAYLCPDDFRAVSKEITVKTTTQQAHASSSSAATPKSPEKSNGTTDVSSSGAANATLQQISPLGSPTTCAACDQALHSGQVLLALGLSWHVYCFKCSECSAVLHGEYMSHHGKPLCLRDYNEKFGVKCYECEKFIAGKVLQAGGYKFHPTCARCSRCGSHFGDGEEMYMQGDEIWHPSCEHARTTENIAPTGRAATLSRNEPKYQSTFGQHQAYMYLLPEVEQTYLRHPVMNAKEPNAPQYHVPQGPIKIRKSRMSMLKTGMQRLTEDLEKNIPRPKSPHMDNEEPIELAHYPAAHVPDPDTLPAIEREDFPAPQFPYAVEELKRRLSTSSVENEISDDEYSESDKVDEDKLRKTVETLEKYNDSSIAHVIRQNIEDSHKKQRLPLHWDPRNASRTPSGKKMPHLKFRYDVPINASPSRHLNRPRPWVVWQGGERDQGNNTLPCFHIPEDSRANTLRAATLPTEFGQNLSLENLDTTISSHYSEHSTTESGTAGGPRSAGGAVLRSSLPDMSKPAKQYDLLFLQTTNSDLPEDVDRQHLERHLPRDQFEEIFKMSLIEFYKLPEWKRINLKRKHKLF | not soluble |
| GAMSVASLPECVKNFFPTEQLEFSSSITADEKPVLHEVFQKHSCFSQCGEMIDEVSKKHPELGKRLATVLEGNKKRLDGLSPAAVEYAKKLIHMVTTTLCSLTVGKPIDDADAKRLHQEFQSLSSEDQAALRKNNPDIKF | soluble |
| MFERFDSDRSRYASLGVVSSLPSGLIDSIWLIIDLNLKGVIPLNDLLHFDLLNNNGKVTVHFSQENSSVEMAIDLPFSYSTAYPSRIFAFDDGHRETILLPAEMLES | soluble |
| MSILVTRPSPAGEELVSRLRTLGQVAWHFPLIEFSPGQQLPQLADQLAALGESDLLFALSQHAVAFAQSQLHQQDRKWPRLPDYFAIGRTTALALHTVSGQKILYPQDREISEVLLQLPELQNIAGKRALILRGNGGRELIGDTLTARGAEVTFCECYQRCAIHYDGAEEAMRWQAREVTMVVVTSGEMLQQLWSLIPQWYREHWLLHCRLLVVSERLAKLARELGWQDIKVADNADNDALLRALQLEHHHHHH | not soluble |
| MIYIIQGGRAGNQLFSYAFAQRIRQIYGNEEICFVLSAIKNKAMDDCNGAYWEDSLKYFDVQDYSVSFEDNIVTKEGNLFQRFLYQFWRGSRKLNNIIFSLTGVEFSKFSLLLNRVVFNLISRFGLYIITHGFSESIKKTSFKNKFIYGSFEDNRWFSDIESKLRLEFKPKYNLNEKALQLYNELLNQNAICVSLRKWSIDVHDDSELEKREICDRNYYEKAINHIINTVEKPIFVVFSDDLEWASELMRSIIKDRYPLLVEKGDNNVAEKLFLMSTCKHFIIANSTFSWWAAYLGEFSDKIVVSPNIWFKSNKQFHPLILDDWIKINCQLEHHHHHH | not soluble |
| MFGVTLWEMFSGGEEPWAGVPPYLILQRLEDRARLPRPPLCSRALYSLALRCWAPHPADRPSFSHLEGLLQEAGPSEACCVRDVTEPGALRMETGDPITVIEGSPDSTIWKGQNGRTFKVGSFPASAVTLADAGGLPATRPVHRGTPARGDQHPGSIDGDRKKANLWDAPPARGQRRNMPLERMKGISRSLESVLSLGPRPTGGGSSPPEIRQARAVPQGPPGLPPRPPLSSSSPQPSQPSRERLPWPKRKPPHNHPMGMPGARKAAALSGGLLSDPELQRKIMEVELSVHGVTHQECQTALGATGGDVVSAIRNLKVDQLFHLSSRSRADCWRILEHYQWDLSAASRYVLARP | soluble |
| PDIDGGILFLEDVGEQPYRIERMLNTLYLSGILKKQRAIVFGNFRMEKIRDVYDPSYDFSAVANHVSRTAKIPVLTGFPFGHIADKITFPLGAHARIRMNGNSGYSVAFEGYPTLDASALTLDTLLPPPDLPIFPESGVADISE | not soluble |
| MGSDKIHHHHHHMGSTFMGIETGRRALTTNQWALQSTGNNIANAGTAGFSRQRLVMATTEQLSMAIGTGKMGQIGTGVRGEILERVRDVMLDKQYRDEATKTAYYGTKEAAFGRMEDIINEPSDTGLAKAFDGFWESLQTLSTNPQDSGARSVVRQKAETLTQTFNYMSKSLSQVKEDLKSEIDVSTKKVNDLFKKIHNINAEIHTVEPLGVLPNALYDERDRYMDELAQYVDFEKVSVDAEAITQGKLGNATKTAEGRIDILVKLPNGNKLRAVDSDVAQAGILSFTTNDKGLYTGFETNSQTISFDAAGGGFANGRIAGLLEMYGQIKNGQPTGEFVKMQSNLDEMATTFATAFNAAHAANFKKDKTNGTDQFFVATSGSISAATIAVGQDIKGSLDNIATSTDGNIGDSAGALKLAQMKTTSLLFATSVTTTTIGSFYQNVIGDMGVATDQVGRLGQSSAVLMDSAEQRRMSVSAVSIDEEMTMMIQYQHAYNAAARNITTVDEMLDKIINGMGIVGR | not soluble |
